Like-named read-outs stand apart in the source and are kept apart here. Positions of bridges follow the written chain, without caps; N, C: chain ends. Non-standard residues stand in square brackets, D forms with d. No end group written: not given here. hArg = N=C(N)NCCCC[C@H](N)C(=O)O; Aib = CC(C)(N)C(=O)O
T1: PTH/PTHrP receptor (P1R), wild-type, full-length (human, UniProt Q03431 27-593)
T1 sequence (looked up): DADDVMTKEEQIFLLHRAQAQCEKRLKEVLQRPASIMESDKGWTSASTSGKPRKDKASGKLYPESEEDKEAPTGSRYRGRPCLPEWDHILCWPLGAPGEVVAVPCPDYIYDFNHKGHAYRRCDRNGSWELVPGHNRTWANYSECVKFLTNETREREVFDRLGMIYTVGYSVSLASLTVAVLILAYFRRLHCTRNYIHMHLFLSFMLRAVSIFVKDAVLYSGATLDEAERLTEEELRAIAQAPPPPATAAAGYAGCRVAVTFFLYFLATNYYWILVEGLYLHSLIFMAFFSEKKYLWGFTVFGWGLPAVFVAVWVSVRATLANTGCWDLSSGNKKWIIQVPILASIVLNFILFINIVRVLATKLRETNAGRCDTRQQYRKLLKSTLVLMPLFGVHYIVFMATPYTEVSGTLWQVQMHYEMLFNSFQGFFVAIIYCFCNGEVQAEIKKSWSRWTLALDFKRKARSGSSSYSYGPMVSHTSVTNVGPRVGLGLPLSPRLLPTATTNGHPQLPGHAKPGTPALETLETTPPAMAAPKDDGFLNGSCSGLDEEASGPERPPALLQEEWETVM

T2: P1R-DelNt (truncated human P1R deleted for residues 24-181) (human, UniProt Q03431 182-593)
T2 sequence (looked up): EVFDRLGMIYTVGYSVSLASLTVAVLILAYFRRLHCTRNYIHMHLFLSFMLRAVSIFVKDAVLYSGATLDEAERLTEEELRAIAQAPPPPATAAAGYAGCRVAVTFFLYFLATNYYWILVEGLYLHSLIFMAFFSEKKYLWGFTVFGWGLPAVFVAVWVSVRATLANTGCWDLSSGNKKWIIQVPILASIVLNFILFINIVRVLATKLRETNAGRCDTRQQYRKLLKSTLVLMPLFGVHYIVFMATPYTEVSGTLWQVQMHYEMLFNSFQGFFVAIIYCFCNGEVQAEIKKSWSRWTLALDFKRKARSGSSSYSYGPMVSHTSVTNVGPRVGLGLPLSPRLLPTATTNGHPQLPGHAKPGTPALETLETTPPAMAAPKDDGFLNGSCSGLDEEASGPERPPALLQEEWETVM

B1: [(Lys^6, Glu^10)lac.]PTH(1-14) (peptide)
peptide: AVAEIKLMHE[hArg]AKW-NH2
modifications: lactam 6-10; N-terminus assumed
SMILES: CC[C@H](C)[C@H](NC(=O)[C@H](CCC(=O)O)NC(=O)[C@H](C)NC(=O)[C@@H](NC(=O)[C@H](C)N)C(C)C)C(=O)N[C@H]1CCCCNC(=O)CC[C@@H](C(=O)N[C@@H](CCCCNC(=N)N)C(=O)N[C@@H](C)C(=O)N[C@@H](CCCCN)C(=O)N[C@@H](Cc2c[nH]c3ccccc23)C(N)=O)NC(=O)[C@H](Cc2c[nH]cn2)NC(=O)[C@H](CCSC)NC(=O)[C@H](CC(C)C)NC1=O
B2: [Aib^1,3]PTH(1-14) (AibValAibGluIleGlnLeuMetHisGlnHarAlaLysTrp-amide) (peptide)
peptide: [Aib]V[Aib]EIQLMHQ[hArg]AKW-NH2
modifications: N-terminus assumed
SMILES: CC[C@H](C)[C@H](NC(=O)[C@H](CCC(=O)O)NC(=O)C(C)(C)NC(=O)[C@@H](NC(=O)C(C)(C)N)C(C)C)C(=O)N[C@@H](CCC(N)=O)C(=O)N[C@@H](CC(C)C)C(=O)N[C@@H](CCSC)C(=O)N[C@@H](Cc1c[nH]cn1)C(=O)N[C@@H](CCC(N)=O)C(=O)N[C@@H](CCCCNC(=N)N)C(=O)N[C@@H](C)C(=O)N[C@@H](CCCCN)C(=O)N[C@@H](Cc1c[nH]c2ccccc12)C(N)=O
B3: [Ala^6,10]PTH(1-34) (peptide)
peptide: SVSEIALMHALGKHLNSMERVEWLRKKLQDVHNY-NH2
notes: Double Ala analog of [Tyr^34]hPTH(1-34)amide
B4: [Ala^6]PTH(1-34) (peptide)
peptide: SVSEIALMHNLGKHLNSMERVEWLRKKLQDVHNY-NH2
notes: Gln6->Ala analog of [Tyr^34]hPTH(1-34)amide

Assays:
[1] = molecular target: T1, PTH/PTHrP receptor (P1R), wild-type, …; assay: cell-based or functional assay
[2] = molecular target: T1, PTH/PTHrP receptor (P1R), wild-type, …; assay: cell-based or functional assay; remark: listed apart in the source
[3] = molecular target: T2, P1R-DelNt (truncated human P1R deleted …); assay: cell-based or functional assay
[4] = molecular target: T2, P1R-DelNt (truncated human P1R deleted …); assay: cell-based or functional assay; remark: listed apart in the source
[5] = molecular target: T1, PTH/PTHrP receptor (P1R), wild-type, …; assay: cell-based or functional assay; remark: listed apart in the source
[6] = molecular target: T1, PTH/PTHrP receptor (P1R), wild-type, …; assay: competition with 125I-[Ala3,12,Gln10,Har11,Trp14,Arg19,Tyr21]PTH(1-21)-amide tracer on HKRK-B28 cells expressing P1R
Procedure: Competition Binding. Binding reactions were performed with […] cells or in COS-7 cells in 24-well plates. The cells were rinsed with 0.5 mL of binding buffer, and then treated successively with 100 μL binding buffer, 100 μL of binding buffer containing various amounts of unlabeled competitor ligand, and 100 μL of binding buffer containing ca. 100,000 cpm of ¹²⁵I-[M]PTH(1-21)(SEQ. ID. NO. 16) or ¹²⁵I-[Aib^{1,3},M]PTH(1-21)(SEQ. ID. NO. 17) (ca. 26 fmol; final volume=300 μL). Incubations were 4 to 6 h at 4° C., at which time near equilibrium conditions were attained. Cells were then placed on ice, the binding medium was removed, and the monolayer was rinsed three times with 0.5 mL of cold binding buffer. The cells were subsequently lysed with 0.5 mL 5N NaOH and counted for radioactivity. For each tracer and in each experiment, the non-specific binding was determined as the radioactivity that bound in the presence of the same unlabeled peptide at a concentration of 1 μM, and was ˜1% of total radioactivity added for each tracer. The maximum specific binding (B₀) was the total radioactivity bound in the absence of competing ligand, corrected for nonspecific binding, and for each tracer, ranged from 8% to 20% of the total radioactivity added. Nonlinear regression was used to calculate binding IC₅₀ values (see below). Scatchard transformations of homologous competition binding data derived from studies with 26 fmol of ¹²⁵I-[Aib^{1,3},M]PTH(1-21) (SEQ. ID. NO. 17) were employed for estimations of apparent equilibrium dissociation constant (kDapps) and total number of ligand binding sites (Bₘₐₓ), assuming a single class of binding sites and equal affinities of the iodinated and non iodinated ligand.
The peptide PTH(1-34) ([Tyr³⁴]bPTH(1-34)NH₂) (SEQ. ID. NO. 10) and analogs containing substitutions at positions 6 and/or 10 in place of Gln and Asn, respectively, were evaluated in HKRK-B28 cells for the capacity to stimulate cAMP accumulation, and to inhibit the binding of ¹²⁵I-[Ala^{3,12}, Gln¹⁰, Har¹¹, Trp¹⁴,Arg¹⁹, Tyr²¹]PTH(1-21)-amide (SEQ. ID. NO. 30) tracer radioligand.

[7] = molecular target: T1, PTH/PTHrP receptor (P1R), wild-type, …; assay: cell-based or functional assay; remark: listed apart in the source
[8] = molecular target: T1, PTH/PTHrP receptor (P1R), wild-type, …; assay: cell-based or functional assay; remark: listed apart in the source
[9] = molecular target: T2, P1R-DelNt (truncated human P1R deleted …); assay: cell-based or functional assay; remark: listed apart in the source

Row | Binder | cAMP EC50 [3] | cAMP Emax (%) [3] | IC50 [6] | cAMP EC50 [7] | cAMP Emax (%) [7] | cAMP EC50 [8] | cAMP Emax (%) [8] | cAMP EC50 [9] | cAMP Emax (%) [9] | further results
1 | B1 | – | – | – | – | – | – | – | – | – | cAMP EC50 [1]: 21 µM; cAMP Emax (%) [1]: 59%; cAMP potency relative to linear [Lys^6, Glu^10]PTH(1-14) [2]: 6 fold
2 | AVAEIQLMHQR-NH2 [PTH(1-11) (AlaValAlaGluIleGlnLeuMetHisGlnArg-amide)] | 14 µM | 100% | – | – | – | – | – | – | – | fold increase in cAMP formation [2]: 75 fold; fold increase in cAMP formation [4]: 55 fold; cAMP EC50 [5]: 5 µM; cAMP Emax (%) [5]: 100%
3 | B2 | 0.0066 µM | 100% | – | – | – | – | – | – | – | fold increase in cAMP accumulation [4]: 50 fold
4 | B3 | – | – | 3.9 µM | 2.2 µM | 107% | 0.3 µM | 121% | 19 µM | 44% | –
5 | SVSEIQLMHALGKHLNSMERVEWLRKKLQDVHNY-NH2 [[Ala^10]PTH(1-34)] | – | – | 6.4 µM | 3 µM | 106% | 0.27 µM | 96% | 14 µM | 46% | –
6 | B4 | – | – | 4.5 µM | 4.9 µM | 105% | 0.17 µM | 104% | > 100 µM | 4.5% | –

Reference: patent publication US20060229240A1 (GARDELL ET AL, published 2006)
